± gives the uncertainty stated by the source.
assay: amyloid nucleation score (Sup35N fusion, yeast selection) (log enrichment); library NNK1; higher = more nucleation; inactive = no reads after selection
Method in brief: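 Plasmid inserts were Illumina-sequenced at input and output from psi-negative yeast expressing Sup35N fused to peptides of 20 random codons. The yeast were induced with 100 μM copper sulfate for 24 hours and grown 7 days at 30°C on medium lacking adenine and uracil, and sequences with under 100 input reads were excluded. Nucleation score is the DiMSum log enrichment of output over input reads, centred on the mode score of non-aggregating sequences.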

Question: For CSGCQARIWALDRRRRVEVS, which amyloid nucleation score is on record?
Answer: The amyloid nucleation score was 0.213 ± 0.69.

Question: With CSGLNVSLSRRQVVVLSV as the substance, how does the amyloid nucleation score read?
Answer: The amyloid nucleation score was -0.632 ± 0.33.

Question: With CSHANETW as the substance, how does the amyloid nucleation score read?
Answer: Its amyloid nucleation score is 0.593 ± 0.55.

Question: For CSKIVYPCSTFTSLFYLFLP, which amyloid nucleation score is on record?
Answer: The amyloid nucleation score was -0.614 ± 0.8.

Question: Which amyloid nucleation score does the source give for CSLNLNCVS here?
Answer: The amyloid nucleation score was 3.76 ± 0.13.

Question: Which amyloid nucleation score does the source give for CSLTKQRCYFEQLMSGPPCL here?
Answer: The amyloid nucleation score was -0.329 ± 0.35.

Question: For CSNDMGEQWWEDRYCTGKWD, which amyloid nucleation score is on record?
Answer: Its amyloid nucleation score is -0.204 ± 0.38.

Question: Which amyloid nucleation score does the source give for CSPVYIEFRLRQVFVARA here?
Answer: The amyloid nucleation score was 1.26 ± 0.76.

Question: For CSVKCKTRCVYRFMESKWF, which amyloid nucleation score is on record?
Answer: The amyloid nucleation score was -0.021 ± 0.32.

Question: Which amyloid nucleation score does the source give for CSYPVECSGSMYVSEKTSIF here?
Answer: Its amyloid nucleation score is “inactive”.

Question: With CTAQTSCILW as the substance, how does the amyloid nucleation score read?
Answer: The amyloid nucleation score was 0.2 ± 0.29.

Question: With CTFSSWRESGFWTSLIHGYL as the substance, how does the amyloid nucleation score read?
Answer: Its amyloid nucleation score is -0.218 ± 0.36.

Question: With CTLSYSCFLVVLSFYGQSSF as the substance, how does the amyloid nucleation score read?
Answer: The amyloid nucleation score was 0.366 ± 0.24.

Question: With CTRFKGFAWTSMLRL as the substance, how does the amyloid nucleation score read?
Answer: Its amyloid nucleation score is 0.21 ± 0.75.

Question: Which amyloid nucleation score does the source give for CVCLSVARLDYADIFVWTFM here?
Answer: The amyloid nucleation score was 2.28 ± 0.13.

Question: For CVCYRTDRVARTGCNEPSMQ, which amyloid nucleation score is on record?
Answer: Its amyloid nucleation score is 0.177 ± 0.59.

Question: With CVDRQFAAVRQVTTIQTWCG as the substance, how does the amyloid nucleation score read?
Answer: The amyloid nucleation score was 0.983 ± 0.26.

Question: With CVFRCVLVKWSVNMVLLLWF as the substance, how does the amyloid nucleation score read?
Answer: Its amyloid nucleation score is 0.536 ± 0.3.

Question: Which amyloid nucleation score does the source give for CVIDRWGDIYSNHEGNRSLL here?
Answer: Its amyloid nucleation score is -0.025 ± 0.32.

Question: Which amyloid nucleation score does the source give for CVKERELIFFWYVVRSEYDL here?
Answer: The amyloid nucleation score was -0.485 ± 0.47.

Question: Which amyloid nucleation score does the source give for CVLCKQRFTILMQRWLVRK here?
Answer: Its amyloid nucleation score is 0.961 ± 0.61.

Question: With CVNLFSLLFWTLAIRCLNFR as the substance, how does the amyloid nucleation score read?
Answer: Its amyloid nucleation score is -0.025 ± 0.49.

Question: With CVPDGKFRSKRIPGRNFPLL as the substance, how does the amyloid nucleation score read?
Answer: The amyloid nucleation score was 0.278 ± 0.42.

Question: For CVTAAEM, which amyloid nucleation score is on record?
Answer: Its amyloid nucleation score is 0.762 ± 0.41.

Question: With CWCGVTVCV as the substance, how does the amyloid nucleation score read?
Answer: Its amyloid nucleation score is -0.276 ± 0.59.

Question: Which amyloid nucleation score does the source give for CWCMFCTASL here?
Answer: Its amyloid nucleation score is 7.637 ± 0.064.

Question: With CWGLRLLSFVRRLV as the substance, how does the amyloid nucleation score read?
Answer: The amyloid nucleation score was 0.749 ± 1.

Question: With CWVCNEKRAFRRPVSNQLRV as the substance, how does the amyloid nucleation score read?
Answer: Its amyloid nucleation score is -0.146 ± 0.85.

Question: For CYCNEKIVTMRAIDIVRFTC, which amyloid nucleation score is on record?
Answer: Its amyloid nucleation score is -0.556 ± 0.23.

Question: For CYHSKFAVAYQSRICWPWRD, which amyloid nucleation score is on record?
Answer: The amyloid nucleation score was 1.26 ± 0.67.

Question: For CYLLQWTSFCQQAFSNEMGW, which amyloid nucleation score is on record?
Answer: Its amyloid nucleation score is 0.267 ± 0.67.

Question: For CYNNSCDKWGWASM, which amyloid nucleation score is on record?
Answer: Its amyloid nucleation score is 1.22 ± 0.53.

Question: For CYSRAYEEARSAI, which amyloid nucleation score is on record?
Answer: The amyloid nucleation score was 1.21 ± 0.76.

Question: With CYVKTYKIKSLRR as the substance, how does the amyloid nucleation score read?
Answer: Its amyloid nucleation score is -0.07 ± 1.4.

Question: For CYVMLINAEND, which amyloid nucleation score is on record?
Answer: Its amyloid nucleation score is -0.796 ± 1.4.

Question: Which amyloid nucleation score does the source give for CYVNLTFPVLVEACTASFTD here?
Answer: The amyloid nucleation score was 6.722 ± 0.055.

Question: With DAEFRHDSGYEVHHQKLVFF as the substance, how does the amyloid nucleation score read?
Answer: Its amyloid nucleation score is 2.91 ± 0.19.

Question: With DAMRGLPFYQYMHHMGNGYW as the substance, how does the amyloid nucleation score read?
Answer: Its amyloid nucleation score is -0.083 ± 1.4.

Question: With DANNIRLDDSFELRWCKNVC as the substance, how does the amyloid nucleation score read?
Answer: Its amyloid nucleation score is -1.36 ± 0.91.

Question: For DASIIPYMNMFIMLTSLA, which amyloid nucleation score is on record?
Answer: The amyloid nucleation score was -0.889 ± 1.7.

Question: Which amyloid nucleation score does the source give for DCGAWGHTLVSWSKYLGKSF here?
Answer: The amyloid nucleation score was 3.64 ± 0.092.

Question: With DCGDNRLTTEGQKSSSPVAD as the substance, how does the amyloid nucleation score read?
Answer: The amyloid nucleation score was 0.378 ± 0.3.

Question: For DCTEH, which amyloid nucleation score is on record?
Answer: The amyloid nucleation score was “inactive”.

Question: With DCVSHAGQRGIMCRSGSLRF as the substance, how does the amyloid nucleation score read?
Answer: Its amyloid nucleation score is -0.138 ± 0.64.

Question: With DDGGLSFGSGNSQSSKKIWL as the substance, how does the amyloid nucleation score read?
Answer: The amyloid nucleation score was 0.853 ± 0.42.

Question: Which amyloid nucleation score does the source give for DDKSFQ here?
Answer: Its amyloid nucleation score is 0.614 ± 0.37.

Question: With DDMVDVPFTMVGMWPYDSY as the substance, how does the amyloid nucleation score read?
Answer: The amyloid nucleation score was -0.381 ± 0.3.

Question: With DDQKIRRY as the substance, how does the amyloid nucleation score read?
Answer: The amyloid nucleation score was 0.602 ± 0.34.

Question: Which amyloid nucleation score does the source give for DDSHVSCDYTLYGWSFGYMC here?
Answer: Its amyloid nucleation score is 2.37 ± 0.1.

Question: For DDVMSKVPCVTTYSVVLLMR, which amyloid nucleation score is on record?
Answer: The amyloid nucleation score was 0.83 ± 0.78.

Question: Which amyloid nucleation score does the source give for DEGRDLILISLAHRTSRIDP here?
Answer: The amyloid nucleation score was 1.29 ± 0.26.

Question: With DETWLSLQVNLLLFYSRMDM as the substance, how does the amyloid nucleation score read?
Answer: The amyloid nucleation score was -0.153 ± 0.66.

Question: Which amyloid nucleation score does the source give for DFAYMSVLWIVVMLRGFLVK here?
Answer: The amyloid nucleation score was 0.639 ± 0.45.

Question: Which amyloid nucleation score does the source give for DFDNEGLWCS here?
Answer: The amyloid nucleation score was -0.217 ± 0.42.

Question: Which amyloid nucleation score does the source give for DFFLIFWWDSFSAGVCQMNS here?
Answer: The amyloid nucleation score was 0.356 ± 0.51.

Question: For DFNHYDRSSW, which amyloid nucleation score is on record?
Answer: Its amyloid nucleation score is 2.45 ± 0.18.

Question: Which amyloid nucleation score does the source give for DFSCGRMGFALERSLAMYRA here?
Answer: The amyloid nucleation score was 0.041 ± 0.53.

Question: With DFYADIASVMSVPILCSLLG as the substance, how does the amyloid nucleation score read?
Answer: The amyloid nucleation score was “inactive”.

Question: For DFYLT, which amyloid nucleation score is on record?
Answer: The amyloid nucleation score was -0.257 ± 1.4.

Question: With DFYLWPGMFSKYLGLNATLS as the substance, how does the amyloid nucleation score read?
Answer: Its amyloid nucleation score is -0.604 ± 0.57.

Question: With DFYYNALIREVGQ as the substance, how does the amyloid nucleation score read?
Answer: Its amyloid nucleation score is -0.825 ± 0.75.

Question: Which amyloid nucleation score does the source give for DGASMSKRPPRVILKLGIFD here?
Answer: Its amyloid nucleation score is 0.054 ± 0.33.

Question: For DGFKAALICAIANY, which amyloid nucleation score is on record?
Answer: The amyloid nucleation score was 0.397 ± 0.3.

Question: With DGLRCIGCIGNTGDWNS as the substance, how does the amyloid nucleation score read?
Answer: The amyloid nucleation score was 6.86 ± 0.085.

Question: With DGSYTWWAFGSIQRCEGLTV as the substance, how does the amyloid nucleation score read?
Answer: The amyloid nucleation score was 0.177 ± 0.47.

Question: With DIFRIYMWVHCMDRHSDGTV as the substance, how does the amyloid nucleation score read?
Answer: Its amyloid nucleation score is 2.29 ± 0.27.

Question: With DIIVFSVLFLVTLDGDLWC as the substance, how does the amyloid nucleation score read?
Answer: Its amyloid nucleation score is 0.476 ± 0.97.

Question: For DISRMMSISRLFFYNNVLFT, which amyloid nucleation score is on record?
Answer: Its amyloid nucleation score is -0.524 ± 0.44.

Question: For DKNML, which amyloid nucleation score is on record?
Answer: Its amyloid nucleation score is 1.44 ± 0.54.

Question: Which amyloid nucleation score does the source give for DKRECFGLDLEIWSMVVWMW here?
Answer: Its amyloid nucleation score is 0.611 ± 0.8.

Question: Which amyloid nucleation score does the source give for DKRIARLNPRIGTSVSWDVS here?
Answer: Its amyloid nucleation score is 0.89 ± 0.5.

Question: For DLCQEPIG, which amyloid nucleation score is on record?
Answer: Its amyloid nucleation score is -0.379 ± 0.3.

Question: For DLEGMPELARDVGAKI, which amyloid nucleation score is on record?
Answer: The amyloid nucleation score was -0.825 ± 0.98.

Question: Which amyloid nucleation score does the source give for DLEIAGREGS here?
Answer: The amyloid nucleation score was -0.322 ± 0.55.

Question: Which amyloid nucleation score does the source give for DLFSTVFNWMTNCPFKNSW here?
Answer: Its amyloid nucleation score is -0.32 ± 0.49.

Question: With DLIGFSWGTIEWLRA as the substance, how does the amyloid nucleation score read?
Answer: The amyloid nucleation score was -0.931 ± 0.64.

Question: For DLRKAGGWHRVIC, which amyloid nucleation score is on record?
Answer: Its amyloid nucleation score is 0.111 ± 0.56.

Question: For DLRSSGFDTELILQVSVQLL, which amyloid nucleation score is on record?
Answer: The amyloid nucleation score was -0.264 ± 0.59.

Question: For DLTCWLLFFNLLYSI, which amyloid nucleation score is on record?
Answer: Its amyloid nucleation score is 0.492 ± 0.33.

Question: Which amyloid nucleation score does the source give for DLTVRPACAGCRLYSEVILD here?
Answer: The amyloid nucleation score was -0.852 ± 1.6.

Question: With DLYSGSSFPEISGETSGYIP as the substance, how does the amyloid nucleation score read?
Answer: The amyloid nucleation score was 0.06 ± 0.49.

Question: For DMIDSGGNALHSSQAHNYRR, which amyloid nucleation score is on record?
Answer: Its amyloid nucleation score is 1.08 ± 0.37.

Question: With DMMAIGSTTVCLVLRFFGKM as the substance, how does the amyloid nucleation score read?
Answer: Its amyloid nucleation score is -0.929 ± 2.7.

Question: With DMSFRYLSGSVNLCVVHLRR as the substance, how does the amyloid nucleation score read?
Answer: Its amyloid nucleation score is -0.244 ± 1.1.

Question: For DMTWNKQHFYGCSISYRSGT, which amyloid nucleation score is on record?
Answer: Its amyloid nucleation score is 5.99 ± 0.086.
